Measured values reported in the DeepSol protein solubility set.

test: soluble on expression in E. coli; label from the status in PepcDB or PDB records

Sequence | soluble on expression in E. coli
SKAVIVIPARYGSSRLPGKPLLDIVGKPMIQHVYERALQVAGVAEVWVATDDPRVEQAVQAFGGKAIMTRNDHESGTDRLVEVMHKVEADIYINLQGDEPMIRPRDVETLLQGMRDDPALPVATLCHAISAAEAAEPSTVKVVVNTRQDALYFSRSPIPYPRNAEKARYLKHVGIYAYRRDVLQNYSQLPESMPEQAESLEQLRLMNAGINIRTFEVAATGPGVDTPACLEKVRALMAQELAENA | soluble
SKKTVEFVDYVNPLMGTESTFAFSHGNTYPAVAVPWGMNFWSPQTGENGSGWMYTYTDSLMRGFRQTHQPSPWINDYGTFSIMPLAGELKMSHKERLVPFSHQQEKATPYNYSVTFNNGLQTSLSATSRGAVFEVSFPEKEDQYVVVDAYNGGSSITIEPEKRLVKGATRYNNGGVPDNFANYFMMEFSHPVIEYGTYNGDTLLHHQTDVAADYTCAYLKFDVPAGEKLTIRTASSFISPEQAAINFNREVADADVQLISGKAREQWNNYLGRVEAEGGTDEQLRTFYSCLYRTLLFPREFYEFDSQGNPVYYSPYDGNVHDGYMYTDNGFWDTFRAVHPLFTLLYPEVSERVTQSIINAYNESGFMPEWASPGHRGCMIGNNSVSLLVDAWMKGIQTVDAEKALEAMIHQTQARHAEIASVGRDGFEYYDKLGYVPYPEVPEATAKTLEYAYADWCIARFAESLGKQDIADQYYQKAPNYRNLYYPEHGFMWTKDAKGNWRDRFDATEWGGPFTEGSSWHWTWSVFHDPEGLSELMGGHEPMIARLDSMFVAPNTYNYGTYGFVIHEIAEMVALNMGQYAHGNQPVQHAIYLYDYIGQPWKTQYHLRNVMDKLYNSGSKGYCGDEDNGQTSAWYVFSAMGFYPVCPGMPEYAIGSPLFKKVTLHLPEGKNFVVSAADNAADRPYIRKALLNGQEFTRNYLTHDELKQGGELNLSMDSVPNQQRGTQPADFPYSYSK | soluble
SKLSPIIMIPGSSATENRFDGLVRKLNQDRRGTKHSLLKVKVWNNGRITFEGKIRKNDNEPIIVIGFENNKDGYSNIKKQAKMMNQAFEALQNKYNFNNFKGLAHSNGGLIYTAFIENDLSDYDVKINSLMTIGTPYNFTETNIKNKSVMLADFIAAKENIPSTLHVYSVAGTITYDSDELVPDASVSAGKYIYQNQAKSYTEITVTGEDAQHSDLPTNDEVVDLIKQHIEGQGLRKKQKTKLEPQ | not soluble
SKSRRWVFALRHGERVDLTYGPWVPHCFENDTYVRKDLNLPLKLAHRAGGKGGYVKDTPLTRLGWFQAQLVGEGMRMAGVSIKHVYASPALRCVETAQGFLDGLRADPSVKIKVEPGLFEFKNWHMPKGIDFMTPIELCKAGLNVDMTYKPYVEMDASAETMDEFFKRGEVAMQAAVNDTEKDGGNVIFIGHAITLDQMVGALHRLRDDMEDVQPYEIGRNLLKVPYCALGAMRGKPWDVVSPPCPPSINSSSGRFDWRILIK | soluble
SLAAGVLPQNEQPYSTLVNNSECVANMKGNLERPTPKYTKVGERLRHVIPGHMACSMACGGRACKYENPARWSEQEQAIKGVYSSWVTDNILAMARPSSELLEKYHIIDQFLSHGIKTIINLQRPGEHASCGNPLEQESGFTYLPEAFMEAGIYFYNFGWKDYGVASLTTILDMVKVMTFALQEGKVAIHCHAGLGRTGVLIACYLVFATRMTADQAIIFVRAKRPNSIQTRGQLLCVREFTQFLTPLRNIFSCCDPKAHAVTLPQYLIRQRHLLHGYEARLLKHVPKIIHLVCKLLLDLAE | soluble
SLAFVCLAIGCLYTFLISTTFGCTSSSDTEIKVNPPQDFEIVDPGYLGYMYLQWQPPLSLDHFKECTVEYELKYRNIGSETWKTIITKNLHYKDGFDLNKGIEAKIHTMLPWQCTNGSEVQSSWAETTYWIS | soluble
SLCGEPGCRHEQTAVKAGRSRNWAGSFAKTPGRLFGVGFIRLYQLTLSGFVGNSCRHIPTCSEYGYEAIARHGLWAGGWMALFRVARCGPGGTSGLDPVPEELDGSKRWWTPWRYWSRHR | soluble
SLDSPADNPVDSTASDRPVEGRDRDDEGRARNARPRDGLGRPLPYGANGVPRQPEGVVRAPEATVAEAQRLLDDGKPFHAHEVFEDAWKAGPEEERELWRGMAQLAVGLTHSARGNATGGARLLRRGAGAVTAWAASEAGRERPYGMDLGAVAGWARELAGEVEGGGSVDAAARAPRLRG | not soluble
SLEKHSWYHGPVSRNAAEYLLSSGINGSFLVRESESSPGQRSISLRYEGRVYHYRINTASDGKLYVSSESRFNTLAELVHHHSTVADGLITTLHYPAPKRNKPTVYGVSPNY | soluble
SLFQNFINKFVGEKQMDLIKDCNTFLAFVTDKEQTKKKLYKNNMCKNRFCPMCAWRRARKDALGLSLMMQYIKQEEKKEFIFLTLTTPNVKAEELEDEIKKYNLSFGKLVKRKNVKAMMKGYVRKLEITYNKQRDDFNPHFHVLIAVNKSYFKDSKVYISQKEWLEMWRDVTGMPEITQVHVQKIKQNNNKELYEMAKYSGKDSDYLINQKIFDAYYKSLKGKQILVYSGLFKEARKKLKNGELDYLKEIDPTEYLYQIYYIWNQKEYLASELHELTEEEKRKINHQTINEIEEEK | soluble
SLGELPPAPSDSKRTVFLDIDETLVHVTPYPLPFVKPDATFLLQEHRRPSDPPGVSPEYLPGVSAGAAPRAALLHVYYRPFLMPFLENLLQTNRCELVAFTAALREYADPILDGIETKLGGARGSVFAARLYRQHCARAPRSKDLVHAAPSRCLSRCVLLDNSVVSLAAQLANGLLLRPFYGDPQDRELEGVLAFLLDLLEKTGDIRESMKESGMLHKVT | soluble
SLGWIKRLIRMVFQQVGVSMQSVLWSRKPYGSSRSIVRKIGTNLSLIQCPRVQFQINSHATEWSPSHPGEDAVASFADVGWVAKEEGECSARLRTEVRSRPPLQDDLLFFEKAPSRQISLPDLSQEEPQLKTPARANEEALQKICALENELAALRAQIAKIVTQQEQQNLTAGDLDSTTFGTIPPHPPPPPPPLPPPALGLHQSTSAVDLIKERREKRANAGKTLVKNNPKKPEMPNMLEILKEMNSVKLRSVKRSEQDVKPKPVDATDPAALIAEALKKKFAYRYRSDSQDEVEKGIPKSESEATSERVLFGPHMLKPTGKMKALIENVSDS | not soluble
SLHEFGITQNIVAIVTEHAKGAKVQRVLLEIGKLSAIMPDAIRFCFDICTQGTVLEGATLEILEIPGLGRCRQCGGEIYLDKPFGICNCGSVQLDLITGEELKIKEIEIEELCV | soluble
SLHRLNKKAGDYGEKAAEIYLKKSGYTILNRNFRCFLGEVDIIAKNKDYITFVEVKSRWSDTYGLPCEAVNYRKKLKIYRTAKYYIASKSLINYNFRFDVIEVILNHQNDSYDLKFIENAFQI | soluble
SLINNLSTHSYWPNRGQLEVQGLTVKYTEAGRAVLNDISFSVDGGQSVGLLGRTGSGKSTLLSALLGLNYTEGEMFIDGVSSSSMPLQAWRKAFGVVPQKVFILTGTFRMNLDPYGRYSDDELWRVAEEVGLKSVIEQFPDKLDFELKDGGSVLSNGHKQLMCLARSILSKARILLLDEPSSYLDPITLQVLRKTLKQSFSGCTVILSEAKVEPLLECDSFLMIEKSSVKSYDSIQKLMNEMSHLKQAISPAD | soluble
SLKCLVLTGISRNVIEELMRRNIRTIELRSAHNVATALKAEPGDCVFLTPARINDLGRGVSGLVAEVRGKEVMSQSLFYQSPSYIEESELTVVRLMLKPKSLGRLVQVKRGAFLETIEGDVVEMSYFDAR | soluble
SLKDELANIPGIQFVDHVAIAVKQGDLEGQVAAYKMLGFTEVHREDVLGGDQVREVLLRIGDGPNLIQLLEPLNASSPVQKLIEKNGGRGGFAHVAFRVRNARESFDAMTAQGFHIIDKAPRKGSRGTTVFFVHPKSLDSAPFGFLIEIVEEPVEG | soluble
SLKGSSAQVLVVEGEQGLNNDLSHSLEANGYLVTQCFNGKALQKEGLDDQLDLIILGATSESTEADLIQSIVMLREAVSTPIMLLGQKDCVESRIAFYTAGVDDYLTKPVNFSEFLIRVAVILKRVCSDSQMPKHADLLSGLDFEMDKRKGCIRSDEVELLLTPVEFKLLWALVSSGGRVLTKAFLYRNVLNRDFVQHDRSVDVHISRLRAKLSGVGVDTSRLETVHGEGYCYKEG | soluble
SLKITDVQLTAIGMPRLTGFVNKHVIVQLFTDEGIEGIGEMSDFSHLPKYAVDIVDLERTLKQILVGKNPFDIAPINTELNGNFPEAMYYYEKGSFIRNGVDTALYDLCAKALGVSVSDLLGGRQREKIKVCFPIFRHRFMDEVEANLELVKKQYEKGFDVFRLYVGKNVDADEAFLAGVYNEFGGKVKVKSLDFSHLLDWKEALRITRRLAKYPIDLVESPALRNDFAGLHHFRMRCELPVSEHVWSLRQQSEMIKHDSVDIFNIAPVFIGGITQARKAADAAAVAEKSVLIGTTQELSIGTTAMAYFGSTLDHLNYISDPTGPELYVGDVVKNKVNYENGYLHLPERSTIGLGMELDWEKVEQYRVESLNWEDVSVHQLQDRTAQTRA | not soluble
SLKNSESHGEADGGLRERKKRETKKRLTEKGIALFLERGFDNTTLDEIASAAGISRRTFFYYFKSKDEILLSLQSGIGEMLADAVRRAPSSSTPIEVVRDAAIGVCKVIPTNDMIEMDRLMRTSPSVQARKQVSYVQQEGEIYEALSERWPEPERSTALRVVAMLSVGAMRIAGDIFSQEKGVRPMVDLLEEAFGSLIQEVRSGDPRV | soluble
SLLLVIDVGNTNTVLGVYHDGKLEYHWRIETSRHKTEDEFGMILRSLFDHSGLMFEQIDGIIISSVVPPIMFALERMCTKYFHIEPQIVGPGMKTGLNIKYDNPKEVGADRIVNAVAAIHLYGNPLIVVDFGTATTYCYIDENKQYMGGAIAPGITISTEALYSRAAKLPRIEITRPDNIIGKNTVSAMQSGILFGYVGQVEGIVKRMKWQAKQKQKVIATGGLAPLIANESDCIDIVDPFLTLKGLELIYERNRVGSV | soluble
SLQHAPLNFVPDAAKVPPTPGQSPNARWSREAIEALFALPFNDLLFQAQQVHRAHFDANAVQLSTLLSIKTGGCPEDCSYCPQSARYDTGVEAEKLMPIDTVLEAAARAKQNGASRFCMGAAWRNPKPHQLDAVADMVRGVKAMGLETCVTLGMLKQEQAQQLKDAGLDYYNHNLDTAPEFYGEIITTRTYQDRLDTLEHVRDAGINVCCGGIVGLGESRHERAGLVAELANMEPYPDSVPINNLVKVEGTPLAGNEALDPFEFVRTIAVARITMPKAMVRLSAGREAMDDALQALCFMAGANSIFYGEKLLTTDNPEADADRKLLARLGMRVEVQDHLHQAEGAQHSHSSHCHIDITPADEG | soluble
SLQWECWPSLPCWRCFAASGRITLSIKRFTQNSRRHDMKITKINAIPLSYRLPEGKTVTMGVGSTIKRDAIIIRVETSEGITGYGEAHPGRSPGAITSLIHNTIAPMLIGMKATDCVGAWQRVHRMQLSSHGLGAGAALAISGIDMALWDIRGKAANMPLYELLGGSKRRIPAYAGGIALGYQPKESLAEEAQEYIARGYKALKLRIGDAARVDIERVRHVRKVLGDEVDILTDANTAYTMADARRVLPVLAEIQAGWLEEPFACNDFASYREVAKITPLVPIAAGENHYTRFEFGQMLDAGAVQVWQPDLSKCGGITEGIRIAAMASAYRIPINAHSSATGLNHAATIHFLAATENAGYFEACVSKFNPFRDMFGTSFEIGADGCVEPPDAPGLGIEVDESIFEKYPAVDGPGYVVKF | not soluble
